# Measurements from the supplement of paper PMC9732359.
# ± gives the uncertainty stated by the source.
# Experiment: protein stability index of a GFP-peptide fusion (yeast GPS) (PSI 1-4); higher = more stable; sorted into four equal gates, so the index is relative within each strain
# How it was run: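 The protein stability index of a peptide was calculated by multiplying its read frequency in each gate by that gate's number and adding the products. The peptides were tiled 17-residue stretches of yeast proteins, fused downstream of GFP on a Cherry-expressing plasmid and carried in yeast as a pooled library. Mid-log cultures in leucine-free medium were sorted into four equal gates by GFP/Cherry ratio, and each gate's plasmids were PCR-amplified and Illumina-sequenced.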
Sequence,protein stability index (doa10∆),protein stability index (san1∆),protein stability index (ubr1∆),protein stability index (pdr5∆)
MENDKGQLVELYVPRKC [RPS21A],3.17 ± 0.14,3.23 ± 0.12,3.25 ± 0.091,
TKCSTVVKASELDQFWQ [SRP14],2.17 ± 0.041,2.04 ± 0.082,1.72 ± 0.03,2.14 ± 0.047
TLKLRARQRGKLKKSEE [SRP68],3.44 ± 0.15,3.36 ± 0.067,3.67 ± 0.21,3.27 ± 0.11
RTNNVPMIKAEETPSKT [NUT1],2.9 ± 0.1,2.43 ± 0.097,2.66 ± 0.078,2.86 ± 0.084
ICGYTRKEGPTIYYVDS [PRE2],3.36 ± 0.095,3.42 ± 0.042,2.84 ± 0.069,3.24 ± 0.081
VVLGVEKRATSPLLESD [PUP2],2.98 ± 0.16,3.15 ± 0.13,2.84 ± 0.11,2.84 ± 0.13
QTWSYLSLYSTDLENSS [ECM29],2.41 ± 0.064,2.66 ± 0.05,2.76 ± 0.049,2.25 ± 0.052
TRGGASALIENNLFRII [YJL039C/NUP192],2.48 ± 0.048,2.41 ± 0.052,2.7 ± 0.041,2.41 ± 0.052
CEINYYEILLKILITYG [SRB8],1.2 ± 0.047,1.17 ± 0.1,1.2 ± 0.076,1.54 ± 0.065
NLENHFKKSKIDHINEE [SCL1],2.74 ± 0.072,2.64 ± 0.065,2.58 ± 0.047,3.16 ± 0.075
DLVRDIDIDKLIQLGVK [SRP72],,2.71 ± 0.15,,
WYIEKVIRIPMQENDKI [CSI1],3.05 ± 0.14,,3.02 ± 0.14,2.78 ± 0.1
MINDENYIINDIKKNNK [SRB8],3.15 ± 0.078,3.42 ± 0.12,3.21 ± 0.13,2.97 ± 0.095
RVQVGDIVTVGQCRPIS [RPS11A],3.14 ± 0.16,3.07 ± 0.067,3.23 ± 0.074,3.26 ± 0.082
GTVSRVNRLLSVIPLKG [RRP4],1.25 ± 0.058,1.2 ± 0.14,1.23 ± 0.048,1.38 ± 0.05
DNVSSQQMHEVRKELRG [RPP0],2.4 ± 0.14,,2.82 ± 0.13,2.45 ± 0.18
YDLNFKLRETLVKIDDL [SMC1],3.05 ± 0.15,3.01 ± 0.13,2.68 ± 0.14,3.13 ± 0.13
EQWITIESQMRDLILTE [PRP8],2.78 ± 0.088,3.08 ± 0.073,3.14 ± 0.077,3.1 ± 0.092
KNPRVTKEYLVQNLRSW [CSN9],,3.16 ± 0.11,3.36 ± 0.091,3 ± 0.3
PASKHDKEVVYFDEWTI [RPC34],3.27 ± 0.081,3.04 ± 0.056,3.12 ± 0.082,3.43 ± 0.065
KRKWSYVLYAKIVVLSR [RRP43],1.82 ± 0.06,1.87 ± 0.11,2.21 ± 0.056,2.36 ± 0.064

Sequence,protein stability index (doa10∆),protein stability index (san1∆),protein stability index (ubr1∆),protein stability index (pdr5∆)
LESEAQKKATMSAEEAL [RPC34],3.13 ± 0.096,3.04 ± 0.092,3.58 ± 0.12,3.26 ± 0.14
YDGVERVSLQDIKDFAD [QCR2],2.84 ± 0.1,2.5 ± 0.076,2.41 ± 0.089,2.75 ± 0.1
NKYPELLGKDNEDDALI [AAR2],3.33 ± 0.1,3.33 ± 0.051,3.02 ± 0.11,3.19 ± 0.089
THQSPPPPPQQSQPIAN [SNF5],3.01 ± 0.057,2.98 ± 0.04,2.94 ± 0.046,3.07 ± 0.043
RMFEKNVMLNIYPRTVI [SKI6],2.21 ± 0.14,1.06 ± 0.27,2.24 ± 0.094,1.37 ± 0.11
EPEEEKSKREEEAKSVL [ARP9],3.15 ± 0.27,,3.25 ± 0.17,3.53 ± 0.29
IDDVQTIKVVKRSMDAE [RPP1],3.18 ± 0.054,3.06 ± 0.039,3 ± 0.051,2.89 ± 0.057
ATVVSTNHSAAASTPTT [PGD1],2.91 ± 0.047,2.98 ± 0.035,3 ± 0.037,3.12 ± 0.042
TDEALFENVKLLAEYDN [MED4],3.02 ± 0.11,3.08 ± 0.088,2.87 ± 0.073,3.17 ± 0.1
LQAQDRAHRIGQKNEVR [SNF2],3 ± 0.065,2.86 ± 0.073,3.18 ± 0.063,3.17 ± 0.077
AASAAGYDRHITIFSPE [SCL1],2.86 ± 0.11,2.87 ± 0.064,2.95 ± 0.051,2.76 ± 0.075
KLASTLEKISSSNKDLE [SMC4],3.09 ± 0.053,2.96 ± 0.038,2.82 ± 0.056,2.68 ± 0.067
DDEKNDKQARKQRTKKE [SNF2],3.35 ± 0.3,3.06 ± 0.088,3.18 ± 0.1,3.53 ± 0.11
EEYKQLVKDRKFLREVF [RPO21],3.32 ± 0.078,2.81 ± 0.084,2.98 ± 0.11,3.49 ± 0.076
LVTIEGALIHKAGLMTG [SMC1],2.99 ± 0.14,2.92 ± 0.13,2.95 ± 0.12,2.71 ± 0.12
GGRYVYPVHEAHKGQIV [SNU114],1.58 ± 0.12,3.01 ± 0.054,2.89 ± 0.063,2.97 ± 0.11
QSQLNVTLSQLVSVTST [MED8],1.39 ± 0.025,1.44 ± 0.049,1.3 ± 0.019,1.79 ± 0.026
SLTAEAMTAAEHGLHAP [CYT1],2.82 ± 0.091,2.94 ± 0.057,3.1 ± 0.045,3.25 ± 0.073
LINLKISPLMKSQYNMV [SRB8],1.8 ± 0.085,2.07 ± 0.14,1.53 ± 0.12,1.59 ± 0.08
KSPSLTAQKYPIYTGDG [YMR153W/NUP53],2.33 ± 0.055,2.08 ± 0.069,2.01 ± 0.036,2.19 ± 0.051
